T1: human IL-36R extracellular domain expressed with a C-terminal mouse IgG2a Fc tag (hIL-36R-mFc) (human; mouse, UniProt Q9HB29 20-337)
T1 construct: not shown: mouse IgG2a Fc, E98-K330
T1 sequence (looked up): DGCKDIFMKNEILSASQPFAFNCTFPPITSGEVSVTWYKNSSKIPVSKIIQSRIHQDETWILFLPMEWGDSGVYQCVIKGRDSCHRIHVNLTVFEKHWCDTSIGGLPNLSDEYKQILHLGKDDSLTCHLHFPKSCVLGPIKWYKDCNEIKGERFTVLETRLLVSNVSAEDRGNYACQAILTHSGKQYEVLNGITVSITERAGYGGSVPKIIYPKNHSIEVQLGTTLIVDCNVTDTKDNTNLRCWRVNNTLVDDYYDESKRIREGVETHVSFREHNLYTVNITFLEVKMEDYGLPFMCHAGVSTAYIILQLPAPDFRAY

T2: in-line fusion protein of human IL-36R extracellular domain and IL1RAcP extracellular domain expressed with … (human; mouse, UniProt Q9HB29 20-337; Q9NPH3 21-359, limits assumed)
T2 construct: not shown: mouse IgG2a Fc
T2 sequence (looked up): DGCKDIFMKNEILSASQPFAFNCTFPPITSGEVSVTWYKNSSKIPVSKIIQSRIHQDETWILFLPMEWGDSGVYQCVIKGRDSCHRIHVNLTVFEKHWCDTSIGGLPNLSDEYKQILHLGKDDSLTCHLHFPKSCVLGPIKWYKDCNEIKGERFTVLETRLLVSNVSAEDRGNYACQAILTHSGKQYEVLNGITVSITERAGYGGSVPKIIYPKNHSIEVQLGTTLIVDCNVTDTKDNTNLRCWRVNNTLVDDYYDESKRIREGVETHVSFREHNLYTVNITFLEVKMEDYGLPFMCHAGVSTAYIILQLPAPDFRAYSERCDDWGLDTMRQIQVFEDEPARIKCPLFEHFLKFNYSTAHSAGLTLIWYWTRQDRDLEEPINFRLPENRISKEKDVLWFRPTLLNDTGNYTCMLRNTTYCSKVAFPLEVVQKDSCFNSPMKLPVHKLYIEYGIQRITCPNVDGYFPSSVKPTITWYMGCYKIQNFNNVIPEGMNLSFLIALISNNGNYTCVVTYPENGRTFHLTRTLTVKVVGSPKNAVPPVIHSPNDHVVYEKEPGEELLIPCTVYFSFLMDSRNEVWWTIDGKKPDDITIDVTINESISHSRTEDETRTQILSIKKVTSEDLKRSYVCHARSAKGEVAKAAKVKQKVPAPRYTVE

B1: H4H14728P (antibody, human IgG4 S228P, kappa, V domains shown)
VH: QVQLQESGPGLVKPSQTLSLTCTVSGGSISSADYYWSWIRQHPGKGLEWIGSIYYTGSTYYNPSLKSRLTISIDTSENQFSLKLTSLTAADTAVYYCASEEANWGSHFDSWGQGTLVTVSS
VL: DIQMTQSPSSLSASVGDRVTITCRASQSIDNFLNWYQQKPGKAPKLLIYAASSLQSGVPSRFSGSGSGTDFTLTISSLQPEDFASYYCQHSHSAHPITFGQGTRLEIKR
notes: Fully human anti-IL-36R antibody
B2: H4H14731P (antibody, human IgG4 S228P, kappa, V domains shown)
VH: QLQLQESGPGLVKPSETLSLTCTVSGGSISSSNYYWGWIRQPPGKRLEWIGSIYYSGSTYYNPSLKTRVTISVDTSKNQFSLKLTSVTAADTAVYYCAREEAAALTHFDFWGQGTLVTVSS
VL: DIQMTQSPSSLSASVGDRVTITCRASQSISNYLNWYQQKPGKAPKLLIFAASSLQSGVPSRFSGSGSGTDFTLTISSLQPEDFATYYCQHSHSSHPITFGQGTRLEIKR
notes: as for B1
B3: H4H14709P (antibody, human IgG4 S228P, kappa, V domains shown)
VH: EVQLVESGGGLVQPGGSLRLSCAASGFTFSDYAMSWVRQAPGKGLEWVSGISGNGGDTYYGDFVKGRFTISRDNSKNTLYLQMNSLRGEDTAAYFCVIDLDYWGQGTLVTVSS
VL: DIQMTQSPSTLSASEGDRVTITCRASQSISSWLAWYQQKPGKAPRLLIYKASILGDGVPSRFSGSGSGTEFTLTISSLQPDDFATYYCHQYNSYLWTFGQGTKVEIKR
notes: as for B1
B4: H4H14732P2 (antibody, human IgG4 S228P, kappa, V domains shown)
VH: EVQLVESGGGLVQPGRSLRLSCAASGFTFDDYAMHWVRQAPGKGLEWVSGINWAGYNIDYADSVKGRFTISRDNAKNSLYLQMNSLRAEDTALYYCAKDMRGFSYGFPFDYWGQGTLVTVSS
VL: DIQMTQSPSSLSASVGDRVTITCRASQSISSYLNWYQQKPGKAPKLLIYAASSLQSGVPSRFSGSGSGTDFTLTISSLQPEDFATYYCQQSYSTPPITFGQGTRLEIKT
notes: as for B1

Columns and labels:
[1] = molecular target: T3, human IL-36R extracellular domain expressed with a C-terminal myc-myc-hexahistidine tag (hIL-36R-MMH) (human, UniProt Q9HB29 20-337); assay: SPR Biacore T200, mAb captured on anti-hFc, 37C, PBS-T pH 6.0 running buffer
T3 construct: also called Human IL-36R-MMH; REGN2105
Protocol: (§1) Additional binding experiments were performed to determine the effect of pH on the rate of dissociation of IL-36R bound to purified anti-IL-36R antibodies, which was determined using a real-time surface plasmon resonance biosensor using a Biacore T200 instrument. The Biacore sensor surface was first derivatized by amine coupling with a monoclonal mouse anti-human Fc antibody (GE, # BR-1008-39) to capture anti-IL-36R antibodies. […] Different concentrations of hIL-36R-MMH and mfIL-36R-MMH prepared in PBS-T, pH7.4 buffer (ranging from 100 nM to 11.11 nM, 3-fold dilutions) were injected over the anti-IL-36R antibody captured surface for 4 minutes at a flow rate of 50 μL/minute and their dissociation in two running buffers, PBS-T, pH7.4 and PBS-T, pH 6.0, was monitored for 10 minutes. All of these binding kinetics experiments were performed at 25° C. and 37° C. Kinetic dissociation constant (kd) were determined by fitting the real-time sensorgrams to a 1:1 binding model using Scrubber 2.0c curve fitting software. Binding dissociative half-lives (t_{1/2}) were calculated from kd as: […]

[2] = molecular target: T3, human IL-36R extracellular domain …; assay: SPR Biacore T200, mAb captured on anti-hFc, 37C, PBS-T pH 7.4 running buffer
Protocol: as §1

[3] = molecular target: T3, human IL-36R extracellular domain …; assay: SPR Biacore T200, mAb captured on anti-hFc, 25C, PBS-T pH 6.0 running buffer
Protocol: as §1

[4] = molecular target: T3, human IL-36R extracellular domain …; assay: SPR Biacore T200, mAb captured on anti-hFc, 25C, PBS-T pH 7.4 running buffer
Protocol: as §1

[5] = molecular target: T1, human IL-36R extracellular domain …; assay: SPR Biacore 4000, mAb captured on anti-hFc, 25C
Protocol: (§2) Equilibrium dissociation constants (KD values) for IL-36R binding to purified anti-IL-36R antibodies were determined using a real-time surface plasmon resonance biosensor using a Biacore 4000 instrument. The Biacore sensor surface was first derivatized by amine coupling with a monoclonal mouse anti-human Fc antibody (GE, # BR-1008-39) to capture anti-IL-36R monoclonal antibodies. All binding studies were performed in 0.01 M Hepes pH 7.4, 0.15 M NaCl, 3 mM EDTA, and 0.05% v/v Surfactant Tween-20 (HBS-ET running buffer) at 25° C. and 37° C. Different concentrations of IL-36R reagents, human IL-36R extracellular domain expressed with a C-terminal myc-myc-hexahistidine tag (hIL-36R-MMH), Macaca fascicularis IL-36R extracellular domain expressed with a C-terminal myc-myc-hexahistidine tag (mfIL-36R-MMH: mROR1 signal sequence (M1-A29). Macaca fascicularis IL36R_ecto domain (D20-A336).mycmycHis6), human IL-36R extracellular domain expressed with a C-terminal mouse IgG2a Fc tag (hIL-36R-mFc: mROR1 signal sequence (M1-A29)-human IL36R (D20-Y337)-mouse IgG2aFc (E98-K330)) or an in-line fusion protein of human IL-36R extracellular domain and IL1RAcP extracellular domain expressed with mouse IgG2a Fc tag (hIL-36R-Trap-mFc: mROR1 signal sequence (M1-A29)-human IL36R ecto domain (D20-Y337)-human IL1RacP ecto domain(S21-E359)-mouse IgG2aFc) in HBS-ET running buffer (ranging from 100 nM to 3.7 nM, 3-fold dilutions) were injected over the anti-IL-36R antibody captured surface for 4 minutes at a flow rate of 30 μL/minute and their dissociation in HBS-ET running buffer was monitored for 10 minutes. Kinetic association rate constant (kₐ) and dissociation rate constant (kd) were determined by fitting the real-time sensorgrams to a 1:1 binding model using Scrubber 2.0c curve fitting software. Binding dissociation equilibrium constants (KD) and dissociative half-lives (t_{1/2}) were calculated from the kinetic rate constants as: […]

[6] = molecular target: T2, in-line fusion protein of human IL-36R …; assay: SPR Biacore 4000, mAb captured on anti-hFc, 25C
Protocol: as §2

[7] = molecular target: T1, human IL-36R extracellular domain …; assay: SPR Biacore 4000, mAb captured on anti-hFc, 37C
Protocol: as §2

[8] = molecular target: T2, in-line fusion protein of human IL-36R …; assay: SPR Biacore 4000, mAb captured on anti-hFc, 37C
Protocol: as §2

| Binder | 100 nM hIL-36R-MMH Bound (RU) [1] [RU] | koff [1] [s⁻¹] | t1/2 [1] [min] | 100 nM hIL-36R-MMH Bound (RU) [2] [RU] | koff [2] [s⁻¹] | t1/2 [2] [min] | 100 nM Human IL-36R-MMH Bound (RU) [3] [RU] | koff [3] [s⁻¹] | t1/2 [3] [min] | 100 nM Human IL-36R-MMH Bound (RU) [4] [RU] | koff [4] [s⁻¹] | t1/2 [4] [min] | 100 nM hIL-36R-mFc Bound (RU) [5] [RU] | 100 nM hIL-36R-Trap-mFc Bound (RU) [6] [RU] | Kd [6] [nM] | koff [6] [s⁻¹] | kon [6] [M⁻¹ s⁻¹] | t1/2 [6] [min] | 100 nM hIL-36R-mFc Bound (RU) [7] [RU] | Kd [7] [nM] | other results |
| --- | --- | --- | --- | --- | --- | --- | --- | --- | --- | --- | --- | --- | --- | --- | --- | --- | --- | --- | --- | --- | --- |
| B1 | 114 | 0.00306 | 4 | 121 | 0.00296 | 4 | 96 | 0.000887 | 13 | 103 | 0.000898 | 13 | 7 | 63 | 14 | 0.000565 | 40300 | 20 | 11 | 28.7 | koff [7]: 0.000465 s⁻¹; kon [7]: 16200 M⁻¹ s⁻¹; t1/2 [7]: 25 min; 100 nM hIL-36R-Trap-mFc Bound (RU) [8]: 89 RU; Kd [8]: 40.9 nM; koff [8]: 0.00198 s⁻¹; kon [8]: 48500 M⁻¹ s⁻¹; t1/2 [8]: 6 min |
| B2 | 84 | 0.00201 | 6 | 91 | 0.00108 | 11 | 43 | 0.000679 | 17 | 65 | 0.000553 | 21 | 10 | 60 | 4.45 | 0.000201 | 45200 | 57 | 12 | 6.43 | Kd [5]: 5.79 nM; koff [5]: 0.000323 s⁻¹; kon [5]: 55800 M⁻¹ s⁻¹; t1/2 [5]: 36 min; koff [7]: 0.00045 s⁻¹; kon [7]: 69900 M⁻¹ s⁻¹; t1/2 [7]: 26 min; 100 nM hIL-36R-Trap-mFc Bound (RU) [8]: 78 RU; Kd [8]: 9.77 nM; koff [8]: 0.000514 s⁻¹; kon [8]: 52600 M⁻¹ s⁻¹; t1/2 [8]: 22 min |
| B3 | 146 | 0.00172 | 7 | 159 | 0.000704 | 16 | 99 | 0.000842 | 14 | 111 | 0.00042 | 28 | 142 | 173 | 0.404 | 8.07e-05 | 200000 | 143 | 211 | 0.205 | Kd [5]: 0.335 nM; koff [5]: 8.62e-05 s⁻¹; kon [5]: 257000 M⁻¹ s⁻¹; t1/2 [5]: 134 min; koff [7]: 0.000112 s⁻¹; kon [7]: 543000 M⁻¹ s⁻¹; t1/2 [7]: 104 min; 100 nM hIL-36R-Trap-mFc Bound (RU) [8]: 257 RU; Kd [8]: 0.264 nM; koff [8]: 0.000123 s⁻¹; kon [8]: 467000 M⁻¹ s⁻¹; t1/2 [8]: 94 min |
| B4 | 36 | 0.00123 | 9 | 40 | 0.0011 | 10 | 28 | 0.000918 | 13 | 32 | 0.000865 | 13 | 145 | 161 | 2.95 | 0.00136 | 462000 | 8 | 195 | 2 | Kd [5]: 1.4 nM; koff [5]: 0.000797 s⁻¹; kon [5]: 570000 M⁻¹ s⁻¹; t1/2 [5]: 14 min; koff [7]: 0.00127 s⁻¹; kon [7]: 635000 M⁻¹ s⁻¹; t1/2 [7]: 9 min; 100 nM hIL-36R-Trap-mFc Bound (RU) [8]: 212 RU; Kd [8]: 3.63 nM; koff [8]: 0.00182 s⁻¹; kon [8]: 501000 M⁻¹ s⁻¹; t1/2 [8]: 6 min |
